Reference: paper PMC8650758 (Cell reports, 2021)
Blank lines part the entries; values can stand above or below the binder they belong to.

Legend:
DWnt-5(455-1004) [1] = target: T1, DWnt-5(455-1004) (D. melanogaster, UniProt P28466 455-1004, glycosylated at N484/485, N724 and N952; S868 unmodified (not lipid modified)); test: SPR
T1 sequence (looked up): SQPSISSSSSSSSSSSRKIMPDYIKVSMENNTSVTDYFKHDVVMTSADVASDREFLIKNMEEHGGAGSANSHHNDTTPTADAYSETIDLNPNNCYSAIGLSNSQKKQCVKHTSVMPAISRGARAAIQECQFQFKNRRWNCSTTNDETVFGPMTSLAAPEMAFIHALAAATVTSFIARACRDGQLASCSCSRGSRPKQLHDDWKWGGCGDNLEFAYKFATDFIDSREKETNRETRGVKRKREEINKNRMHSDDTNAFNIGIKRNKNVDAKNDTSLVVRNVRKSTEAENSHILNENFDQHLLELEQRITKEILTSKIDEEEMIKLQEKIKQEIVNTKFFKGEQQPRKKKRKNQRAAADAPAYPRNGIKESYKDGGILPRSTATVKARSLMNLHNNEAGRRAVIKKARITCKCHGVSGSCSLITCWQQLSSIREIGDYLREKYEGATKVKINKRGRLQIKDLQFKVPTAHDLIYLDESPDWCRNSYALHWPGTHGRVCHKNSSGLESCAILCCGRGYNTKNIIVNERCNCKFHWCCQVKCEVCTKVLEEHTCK

DWnt-5(455-1004) [2] = target: T1, DWnt-5(455-1004); test: pull-down

B3: sDrl242 I154E (domain or fragment, D. melanogaster, UniProt Q27324 21-242, looked up)
chain: HLNIFLNLHEVLRLIGVSAELYYVREGAINDYALNFAVPVPANISDVTFTWQSLVDHPLPYSINIATSDTEVLPRPILNISRIGDVPVEPQTWGIALKCSGTRNAEVTVTINVEVILDRATNNNTNLIFKRKKECLREEQDSAHEEYDDDDLDLLQTARKGHGGDIHYVDRNDEHVVANGHQAPEKQRPVVTESPVGRGNSGGSKRDFDPMLRENLVPPASG
- binding result (DWnt-5(455-1004) [1]): binds

B4: sDrl242 E126K (domain or fragment, D. melanogaster, UniProt Q27324 21-242, looked up)
chain: HLNIFLNLHEVLRLIGVSAELYYVREGAINDYALNFAVPVPANISDVTFTWQSLVDHPLPYSINIATSDTEVLPRPILNISRIGDVPVEPQTWGIALKCSGTRNAKVTVTINVEVILDRATNNNTNLIFKRKKICLREEQDSAHEEYDDDDLDLLQTARKGHGGDIHYVDRNDEHVVANGHQAPEKQRPVVTESPVGRGNSGGSKRDFDPMLRENLVPPASG
- binding result (DWnt-5(455-1004) [1]): binds

B5: sDrl183 (Drl WIF domain) (domain or fragment, D. melanogaster, UniProt Q27324 21-183, looked up)
chain: HLNIFLNLHEVLRLIGVSAELYYVREGAINDYALNFAVPVPANISDVTFTWQSLVDHPLPYSINIATSDTEVLPRPILNISRIGDVPVEPQTWGIALKCSGTRNAEVTVTINVEVILDRATNNNTNLIFKRKKICLREEQDSAHEEYDDDDLDLLQTARKGHG
- binding result (DWnt-5(455-1004) [2]): binds

B6: sDnt (Dnt ECR) (domain or fragment, D. melanogaster)
chain: SEVAAHLNVFLNPVEVMRLLGVSAEVYYVREGHINNYALNFIVPVPANVKDISFTWQSLAGRGLPYSINVVSSDQEVLPRPAINVSHSGEIPTTIQTWSIALKCSGLKAAEVDVTVSLEVVLNRSLNNVTHLVFRRKKICLMNDSAEDLSEDVDDPQLLETVMLPPTGRPLESRGPFEGKPIPNPLLGLDSTRTG
- fold weaker binding than the Drl and Drl-2 ECRs (DWnt-5(455-1004) [1]): ~10 fold

Further lines, results first:

- fold reduction of affinity against wild-type sDrl242 (DWnt-5(455-1004) [1]): ~10 fold
B1: sDrl242 E40K (domain or fragment, D. melanogaster, UniProt Q27324 21-242, looked up)
chain: HLNIFLNLHEVLRLIGVSAKLYYVREGAINDYALNFAVPVPANISDVTFTWQSLVDHPLPYSINIATSDTEVLPRPILNISRIGDVPVEPQTWGIALKCSGTRNAEVTVTINVEVILDRATNNNTNLIFKRKKICLREEQDSAHEEYDDDDLDLLQTARKGHGGDIHYVDRNDEHVVANGHQAPEKQRPVVTESPVGRGNSGGSKRDFDPMLRENLVPPASG

- Kd (DWnt-5(455-1004) [1]): 720 nM
B2: sDrl242 (Drl ECR) (domain or fragment, D. melanogaster, UniProt Q27324 21-242, looked up)
chain: HLNIFLNLHEVLRLIGVSAELYYVREGAINDYALNFAVPVPANISDVTFTWQSLVDHPLPYSINIATSDTEVLPRPILNISRIGDVPVEPQTWGIALKCSGTRNAEVTVTINVEVILDRATNNNTNLIFKRKKICLREEQDSAHEEYDDDDLDLLQTARKGHGGDIHYVDRNDEHVVANGHQAPEKQRPVVTESPVGRGNSGGSKRDFDPMLRENLVPPASG

- Kd (DWnt-5(455-1004) [1]): 230 nM
B7: sDrl-2 (Drl-2 ECR) (domain or fragment, D. melanogaster)
chain: GYLNIFISHHEVMKLMGLEADLFYVHEGAINTYAMHFTVPVPADVHELEFSWQSLIAYPLPYAISIEYNNDQEALGTPTLSIPHKGLVPQEIESFLVYLPCTGNASLQMPVNVNMVVRAPPRFNDTRLHFKRNKICAKGISPEPNQSPAPAHAPSQGPARPLESRGPFEGKPIPNPLLGLDSTRTG
